# Assay results taken from FireProtDB (doi:10.1046/j.1432-1327.1999.00918.x).
# Where “and” joins values, the source holds several entries; their conditions need not be identical. Equal entries are not always repeated.
# B1: Lysozyme C, P61626 (parent)
# chain: MKALIVLGLVLLSVTVQGKVFERCELARTLKRLGMDGYRGISLANWMCLAKWESGYNTRATNYNAGDRSTDYGIFQINSRYWCNDGKTPGAVNACHLSCSALLQDNIADAVACAKRVVRDPQGIRAWVAWRNRCQNRDVRQYVQGCGV
# Variants of: B1
# Details: Homo sapiens, Thermal, DSC, glycine 0.05 M, reversible: yes, structure 1LZ1, whole UniProt chain shown
Variant,Tm (pH 2.58),unfolding enthalpy (calorimetric) (pH 2.58),unfolding enthalpy (van 't Hoff) (pH 2.58),Tm (pH 2.7),"change of melting temperature, mutant - wild type (higher = more stable) (pH 2.7)",heat capacity change of unfolding (pH 2.7),unfolding enthalpy (calorimetric) (pH 2.7),Tm (pH 2.77),unfolding enthalpy (calorimetric) (pH 2.77),unfolding enthalpy (van 't Hoff) (pH 2.77),Tm (pH 2.5),unfolding enthalpy (calorimetric) (pH 2.5),unfolding enthalpy (van 't Hoff) (pH 2.5),"ddG of mutation (higher = less stable) (pH 2.7, 64.9 °C)",Tm (pH 2.95),unfolding enthalpy (calorimetric) (pH 2.95),unfolding enthalpy (van 't Hoff) (pH 2.95),Tm (pH 3.22),unfolding enthalpy (calorimetric) (pH 3.22),unfolding enthalpy (van 't Hoff) (pH 3.22)
K19A,60.9 °C,90.6 kcal/mol,98.7 kcal/mol,62.7 °C,-2.2 °C,1.6 kcal/mol/K,96.8 kcal/mol,63.7 °C,95.1 kcal/mol,99.4 kcal/mol,,,,,,,,,,
K19M,,,,64.4 °C and 64.9 °C,-0.5 °C,1.03 kcal/mol/K,91.8 kcal/mol,,,,61.7 °C,88.4 kcal/mol,90.1 kcal/mol,0.12 kcal/mol,69.1 °C,95.4 kcal/mol,97.5 kcal/mol,70.1 °C,98.5 kcal/mol,106 kcal/mol
